From patent publication US20020086390 come the findings set out here.

Data set [1] deals with GST-Cdc42Hs preloaded with GDP, P60953.
Data set [2] concerns the target GST-Cdc42Hs preloaded with GTPγS, P60953.
Data set [3] concerns the target GST-Rac1 preloaded with GTPγS, P63000.
Data set [4] concerns the target GST-RhoA preloaded with GTPγS, P61586.

Chain of GST-Cdc42Hs preloaded with GTPγS, P60953 (P60953 whole entry, looked up): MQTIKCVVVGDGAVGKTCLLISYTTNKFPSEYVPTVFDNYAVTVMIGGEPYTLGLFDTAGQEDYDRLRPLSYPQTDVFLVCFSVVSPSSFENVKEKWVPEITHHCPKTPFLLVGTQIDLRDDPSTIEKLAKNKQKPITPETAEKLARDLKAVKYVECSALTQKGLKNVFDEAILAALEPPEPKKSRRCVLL
Chain of GST-Cdc42Hs preloaded with GDP, P60953 (P60953 whole entry, looked up): as above
Chain of GST-RhoA preloaded with GTPγS, P61586 (P61586 whole entry): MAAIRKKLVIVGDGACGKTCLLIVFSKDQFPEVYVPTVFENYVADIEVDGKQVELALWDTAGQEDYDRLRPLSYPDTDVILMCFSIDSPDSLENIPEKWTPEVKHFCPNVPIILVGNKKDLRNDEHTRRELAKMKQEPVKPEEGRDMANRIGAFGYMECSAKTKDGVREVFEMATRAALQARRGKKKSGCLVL

B1: inactive PAK I holoenzyme (p60) purified from rabbit reticulocytes (protein)
chain: SDNGELEDKPPAPPVRMSSTIFSTGGKDPLSANHSLKPLPSVPEEKKPRNKIISIFSGTEKGSKKKEKERPEISPPSDFEHTIHVGFDAVTGEFTGMPEQWARLLQTSNITKLEQKKNPQAVLDVLKFYDSNTVKQKYLSFTPPEKDGFPSGAPALNTKVSETSAVVTEEDDDDEEAAPPVIAPRPDHTKSIYTRSVIDPIPAPVGDSHVDSGAKSSDKQKKKTKMTDEEIMEKLRTIVSIGDPKKKYTRYEKIGQGASGTVFTATDVALGQEVAIKQINLQKQPKKELIINEILVMKELKNPNIVNFLDSYLVGDELFVVMEYLAGGSLTDVVTETCMDEAQIAAVCRECLQALEFLHANQVIHRDIKSDNVLLGMEGSVKLTDFGFCAQITPEQSKRSTMVGTPYWMAPEVVTRKAYGPKVDIWSLGIMAIEMVEGEPPYLNENPLRALYLIATNGTPELQNPEKLSPIFRDFLNRCLEMDVEKRGSAKELLQHPFLKLAKPLSSLTPLIMAAKEAMKSNR
In the case of B1, in data set [1], the “activity (phosphorylation of H4)” value is given as 2,154 pmol/min/mg; the “autophosphorylation and H4 activity relative to Cdc42Hs(GTPγS)” value is “approximately 8-fold lower than those observed with Cdc42Hs(GTPγS)”; the stimulation of autophosphorylation stood at 0.12 mol/mol. Moreover, in data set [2], the “autophosphorylation of PAK I (autoradiography, time course)” value is “Stimulation of autophosphorylation upon addition of GST-Cdc42Hs was observed within 5 min”; the “increased autophosphorylation of PAK I” value is recorded as 0.97 mol/mol; the “stimulation of the rate of phosphorylation of H4” value was 18,261 pmol/min/mg. For the same protein, in data set [3], the “autophosphorylation of PAK I (autoradiography, time course)” value is given as “a slight stimulation of autophosphorylation over the basal level was observed over a 15-min period of incubation”. In data set [4], the “autophosphorylation and activity (phosphorylation of H4)” value is given as “had no stimulatory effect on either autophosphorylation or activity”; the “autophosphorylation of PAK I (autoradiography, time course)” value is given as “GST-RhoA had little effect”.
